# In paper PMC4150762, “The DEAD-box helicase Ded1 from yeast is an mRNP cap-associated protein that shuttles between the cytoplasm and nucleus” (Nucleic Acids Research, 2014):
# Like-named read-outs stand apart in the source and are kept apart here.
# T1: eIF4G9 (S. cerevisiae, UniProt P39935 160-492)
# T1 construct: also called eIF4G9 fragment (160–492); shorten version of eIF4G1; source: E. coli (pGEX-1λT), purified
# T1 sequence (looked up): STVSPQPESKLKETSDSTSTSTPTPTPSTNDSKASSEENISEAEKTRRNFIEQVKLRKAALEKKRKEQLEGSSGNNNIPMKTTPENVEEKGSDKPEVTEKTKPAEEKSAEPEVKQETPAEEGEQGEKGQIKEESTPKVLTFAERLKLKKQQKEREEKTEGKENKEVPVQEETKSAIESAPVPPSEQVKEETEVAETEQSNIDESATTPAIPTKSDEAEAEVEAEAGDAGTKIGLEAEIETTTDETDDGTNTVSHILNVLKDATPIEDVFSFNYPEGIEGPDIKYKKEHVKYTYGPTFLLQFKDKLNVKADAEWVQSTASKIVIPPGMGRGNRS
# B1: Pab1 with an amino-terminal His6 tag (natural protein, S. cerevisiae, UniProt P04147 1-577, looked up)
# chain: MADITDKTAEQLENLNIQDDQKQAATGSESQSVENSSASLYVGDLEPSVSEAHLYDIFSPIGSVSSIRVCRDAITKTSLGYAYVNFNDHEAGRKAIEQLNYTPIKGRLCRIMWSQRDPSLRKKGSGNIFIKNLHPDIDNKALYDTFSVFGDILSSKIATDENGKSKGFGFVHFEEEGAAKEAIDALNGMLLNGQEIYVAPHLSRKERDSQLEETKAHYTNLYVKNINSETTDEQFQELFAKFGPIVSASLEKDADGKLKGFGFVNYEKHEDAVKAVEALNDSELNGEKLYVGRAQKKNERMHVLKKQYEAYRLEKMAKYQGVNLFVKNLDDSVDDEKLEEEFAPYGTITSAKVMRTENGKSKGFGFVCFSTPEEATKAITEKNQQIVAGKPLYVAIAQRKDVRRSQLAQQIQARNQMRYQQATAAAAAAAAGMPGQFMPPMFYGVMPPRGVPFNGPNPQQMNPMGGMPKNGMPPQFRNGPVYGVPPQGGFPRNANDNNQFYQQKQRQALGEQLYKKVSAKTSNEEAAGKITGMILDLPPQEVFPLLESDELFEQHYKEASAAYESFKKEQEQQTEQA
# B2: GST-eIF4G1 fragment 882-952 (domain or fragment, S. cerevisiae, UniProt P39935 882-952, looked up)
# chain: RSNSRRTNNSSNRHSFRRDAPPASKDSFITTRTYSQRNSQRAPPPKEEPAAPTSTATNMFSALMGESDDEE
# notes: eIF4G1 of S. cerevisiae, residues 882-952; also called 882–952 fragment; source: E. coli (pGEX-2T), purified on glutathione Sepharose; not shown: GST, N-terminal, kept
# B3: Cbp80 (1–556) (domain or fragment)
# chain: MFNRKRRGDFDEDENYRDFRPRMPKRQRIPPVVQLCKEMMPDIRTIGESVKAFEDDIKFLSEAIMNEYGHEDYFNNALLSTLNAVVVEQPQKQAAIALLTMVVNSKNNVAGKSIINYFFEELQKWCKQTYNDEFKSTSNETGPWNKIKLILRFLSILSPMFLVDELINIYKSLFELSIELNNLDPGNRVPLSEAIYTNTLLNIPYLFFFNRNNDGLRTKVEELLAYVEQNYLVKTTDINLLREYNGEPPYEMVELVRVVLPNVKKALINNLEQLNELFPDWNHLLTPQTGDEGFNDALTLPSVDDLKSFVRLNKNFGSVDSMWKTPRYAFHVYLPNSAGNFETVVPISTYAGQLFNDIIIDLVESLEFNRKEVARQVITLDLFFKAGIFTEPGESIAQLIATYEENPLAPTFKIEDLAIETILGLIFKLPSVSQPFAYFYTLLVDICQNSPKAIAPVFGRAFRFFYSHLDSLDFELKLRYLDWFSIQMSNFNFSWKWNEWEDDSIKFGKYFYNPKVNFAKNLIQKELRLTSNFSEVEDSLPQEFTKYLDTSYIPRD
# B4: Cbp80 (557–861) (domain or fragment)
# chain: QLINYYQSLFTGYTVEEDSVRKNDLYFRQEGVPMENTVRKILDYTHKANNSREVTELESILGELKNEYGSIISDFNRFVIILLVQAVTDSGSRSLSHANKYINDLKEDLKTIFAKIELDIETKEYIIIEAVLTFWNANPQTGFLVADAFKYAGLLTSRTIFTFIFNETGLKNNGLIEATAIEAVFRNLSQQISEENESGNNFEFVFERLCTIANSTIDLLDVNADEDIEIPKVNGEMDIDDIEDDKLDLKWKYFTVIGFIKSILRRYSHEYRELADKFIANIDNAIPHESTRRTISNWIQETKEV
# B5: 1–387-GST fragment of eIF4G1 (domain or fragment, S. cerevisiae, UniProt P39935 1-387, looked up)
# chain: MTDETAHPTQSASKQESAALKQTGDDQQESQQQRGYTNYNNGSNYTQKKPYNSNRPHQQRGGKFGPNRYNNRGNYNGGGSFRGGHMGANSSNVPWTGYYNNYPVYYQPQQMAAAGSAPANPIPVEEKSPVPTKIEITTKSGEHLDLKEQHKAKLQSQERSTVSPQPESKLKETSDSTSTSTPTPTPSTNDSKASSEENISEAEKTRRNFIEQVKLRKAALEKKRKEQLEGSSGNNNIPMKTTPENVEEKGSDKPEVTEKTKPAEEKSAEPEVKQETPAEEGEQGEKGQIKEESTPKVLTFAERLKLKKQQKEREEKTEGKENKEVPVQEETKSAIESAPVPPSEQVKEETEVAETEQSNIDESATTPAIPTKSDEAEAEVEAEAGDA
# notes: not among the constructs of the methods
# B6: GST-NAB2-HIS6 (natural protein, S. cerevisiae, UniProt P32505 1-525, looked up)
# chain: MSQEQYTENLKVIVAEKLAGIPNFNEDIKYVAEYIVLLIVNGGTVESVVDELASLFDSVSRDTLANVVQTAFFALEALQQGESAENIVSKIRMMNAQSLGQSDIAQQQQQQQQQQQPDIAQQQPQQQPQQQPQQQPQQQPQQQPQQQPQQQPQQQPQLQPLQPQLGTQNAMQTDAPATPSPISAFSGVVNAAAPPQFAPVDNSQRFTQRGGGAVGKNRRGGRGGNRGGRNNNSTRFNPLAKALGMAGESNMNFTPTKKEGRCRLFPHCPLGRSCPHAHPTKVCNEYPNCPKPPGTCEFLHPNEDEELMKEMERTREEFQKRKADLLAAKRKPVQTGIVLCKFGALCSNPSCPFGHPTPANEDAKVIDLMWCDKNLTCDNPECRKAHSSLSKIKEVKPISQKKAAPPPVEKSLEQCKFGTHCTNKRCKYRHARSHIMCREGANCTRIDCLFGHPINEDCRFGVNCKNIYCLFRHPPGRVLPEKKGAAPNSNVPTNERPFALPENAIIENAPPQTSFTHQEQDTEMN
# B7: eIF4E with an amino-terminal His6 tag (natural protein, S. cerevisiae, UniProt P07260 1-213, looked up)
# chain: MSVEEVSKKFEENVSVDDTTATPKTVLSDSAHFDVKHPLNTKWTLWYTKPAVDKSESWSDLLRPVTSFQTVEEFWAIIQNIPEPHELPLKSDYHVFRNDVRPEWEDEANAKGGKWSFQLRGKGADIDELWLRTLLAVIGETIDEDDSQINGVVLSIRKGGNKFALWTKSEDKEPLLRIGGKFKQVLKLTDDGHLEFFPHSSANGRHPQPSITL
# notes: eIF4E (CDC33) of S. cerevisiae cloned into the NdeI-BamHI sites of pET15b; also called CDC33; source: E. coli (pET15b), purified on nickel-agarose
# B8: GST-eIF4G1 fragment 1-596 (domain or fragment, S. cerevisiae, UniProt P39935 1-596, looked up)
# chain: MTDETAHPTQSASKQESAALKQTGDDQQESQQQRGYTNYNNGSNYTQKKPYNSNRPHQQRGGKFGPNRYNNRGNYNGGGSFRGGHMGANSSNVPWTGYYNNYPVYYQPQQMAAAGSAPANPIPVEEKSPVPTKIEITTKSGEHLDLKEQHKAKLQSQERSTVSPQPESKLKETSDSTSTSTPTPTPSTNDSKASSEENISEAEKTRRNFIEQVKLRKAALEKKRKEQLEGSSGNNNIPMKTTPENVEEKGSDKPEVTEKTKPAEEKSAEPEVKQETPAEEGEQGEKGQIKEESTPKVLTFAERLKLKKQQKEREEKTEGKENKEVPVQEETKSAIESAPVPPSEQVKEETEVAETEQSNIDESATTPAIPTKSDEAEAEVEAEAGDAGTKIGLEAEIETTTDETDDGTNTVSHILNVLKDATPIEDVFSFNYPEGIEGPDIKYKKEHVKYTYGPTFLLQFKDKLNVKADAEWVQSTASKIVIPPGMGRGNRSRDSGRFGNNSSRGHDFRNTSVRNMDDRANSRTSSKRRSKRMNDDRRSNRSYTSRRDRERGSYRNEEKREDDKPKEEVAPLVPSANRWVPKFKSKKTEKKLAPDG
# B9: Gle1 (recombinant) (natural protein, S. cerevisiae, UniProt Q12315 1-538, looked up)
# chain: MRFVFDEVFNSDTDSPEFEETCSTTSSTSSQCPTPEPSPAIKLPSFTKVGTKKLVNESVVILDPALENALRDLNLQSKLIPINEPIVAASSIIVPHSTNMPLPRASHSSLLDNAKNSNATAPLLEAIEESFQRKMQNLVLANQKEIQSIRENKRRVEEQRKRKEEEERKRKEAEEKAKREQELLRQKKDEEERKRKEAEAKLAQQKQEEERKKIEEQNEKERQLKKEHEAKLLQQKDKLGKAVTNFDKISKMFWHYKDKIAQIKQDIVLPIKKADVNVRNLLSRHKRKINPKFGQLTNSNQQLFKIQNELTQLINDTKGDSLAYHWILNFIAKAVVHQAETEVRVKPESALPLGKLTLYLLVQFPELQELFMARLVKKCPFVIGFTCEIDTEKGRQNMGWKRNNENKWEDNTSYDERMGGILSLFAIITRLQLPQEFITTTSHPFPIALSWHILARICNTPLNLITNTHFVILGSWWDAAAVQFLQAYGNQASKLLILIGEELTSRMAEKKYVGAARLRILLEAWQNNNMESFPEMSP
# B10: GST-eIF4G1 fragment 542-952 (domain or fragment, S. cerevisiae, UniProt P39935 542-952, looked up)
# chain: SYTSRRDRERGSYRNEEKREDDKPKEEVAPLVPSANRWVPKFKSKKTEKKLAPDGKTELLDKDEVERKMKSLLNKLTLEMFDAISSEILAIANISVWETNGETLKAVIEQIFLKACDEPHWSSMYAQLCGKVVKELNPDITDETNEGKTGPKLVLHYLVARCHAEFDKGWTDKLPTNEDGTPLEPEMMSEEYYAAASAKRRGLGLVRFIGFLYRLNLLTGKMMFECFRRLMKDLTDSPSEETLESVVELLNTVGEQFETDSFRTGQATLEGSQLLDSLFGILDNIIQTAKISSRIKFKLIDIKELRHDKNWNSDKKDNGPKTIQQIHEEEERQRQLKNNSRSNSRRTNNSSNRHSFRRDAPPASKDSFITTRTYSQRNSQRAPPPKEEPAAPTSTATNMFSALMGESDDEE
# How the values were obtained:
# Ded1-His6 [1] = target: T2, Ded1-His6 (S. cerevisiae, UniProt P06634 1-604); experiment: cell-based or functional assay
# Ded1-His6 [2] = target: T2, Ded1-His6; experiment: pull-down; purified GST-eIF4G1 fragments bound to glutathione Sepharose beads, incubated with Ded1, eluted with 10 mM reduced glutathione; Coomassie-stained SDS PAGE, verified by western blot for Ded1; same results with or without RNase I or AMP-PNP; conditions: both partners purified
# Ded1-His6 [3] = target: T2, Ded1-His6
# eIF4G9 = target: T1, eIF4G9; experiment: pull-down; 7-methyl-GTP Sepharose beads loaded with 5 μg purified eIF4E or Cbp20, 5 μg of the purified proteins added with 50 U RNase I, 90 min on ice, TpB buffer (20 mM HEPES pH 7.9, 100 mM KCl, 2 mM MgCl2, 2 mM DTT), eluted with 1 mM 7-methyl-GTP; Coomassie-stained SDS PAGE; conditions: both partners purified
# T2 sequence (P06634 whole entry, the tested form may be a part): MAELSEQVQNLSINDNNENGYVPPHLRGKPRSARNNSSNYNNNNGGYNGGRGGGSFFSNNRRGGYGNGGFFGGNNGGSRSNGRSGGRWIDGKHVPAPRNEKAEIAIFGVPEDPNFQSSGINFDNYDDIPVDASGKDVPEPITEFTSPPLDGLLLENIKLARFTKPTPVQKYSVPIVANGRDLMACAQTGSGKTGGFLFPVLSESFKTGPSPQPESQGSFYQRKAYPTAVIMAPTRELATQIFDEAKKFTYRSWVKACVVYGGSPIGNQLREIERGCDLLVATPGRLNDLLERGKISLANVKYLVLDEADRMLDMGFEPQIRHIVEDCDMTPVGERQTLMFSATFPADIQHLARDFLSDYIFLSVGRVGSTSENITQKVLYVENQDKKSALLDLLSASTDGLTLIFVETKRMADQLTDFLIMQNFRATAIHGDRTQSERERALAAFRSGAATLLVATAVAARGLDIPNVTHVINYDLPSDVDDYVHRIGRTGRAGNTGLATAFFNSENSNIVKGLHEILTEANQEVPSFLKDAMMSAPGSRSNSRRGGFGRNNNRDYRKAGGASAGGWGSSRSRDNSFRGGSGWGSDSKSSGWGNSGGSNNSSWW
binder,measurement,setting,value
B1,"RNA-dependent ATPase activity, % Ded1",Ded1-His6 [1],119%
B2,binding result,Ded1-His6 [2],binds
B3,"RNA-dependent ATPase activity, % Ded1",Ded1-His6 [3],220%
B4,"RNA-dependent ATPase activity, % Ded1",Ded1-His6 [3],144%
B5,binding result,Ded1-His6 [2],binds
B6,"RNA-dependent ATPase activity, % Ded1",Ded1-His6 [1],150%
B7,binding result,eIF4G9,binds
same,"RNA-dependent ATPase activity, % Ded1",Ded1-His6 [1],105%
B8,"RNA-dependent ATPase activity, % Ded1",Ded1-His6 [1],206%
B9,"RNA-dependent ATPase activity, % Ded1",Ded1-His6 [1],191%
B10,"RNA-dependent ATPase activity, % Ded1",Ded1-His6 [1],141%
